# Measured values published in article PMC12571865, “Profiling of HIV-1 elite neutralizer cohort reveals a CD4bs bnAb for HIV-1 prevention and therapy” (Nature immunology, 2025).
# B1: PGDM1400 Fab (Fab, V domains shown)
# VH: QAQLVQSGPEVRKPGTSVKVSCKAPGNTLKTYDLHWVRSVPGQGLQWMGWISHEGDKKVIVERFKAKVTIDWDRSTNTAYLQLSGLTSGDTAVYYCAKGSKHRLRDYALYDDDGALNWAVDVDYLSNLEFWGQGTAVTVSS
# VL: DFVLTQSPHSLSVTPGESASISCKSSHSLIHGDRNNYLAWYVQKPGRSPQLLIYLASSRASGVPDRFSGSGSDKDFTLKISRVETEDVGTYYCMQGRESPWTFGQGTKVDIK
# Biological target: T1, BG505 SOSIP.664 Env trimer (preparation for cryo-EM) (HIV-1 (strain BG505), UniProt Q2N0S6)
# T1 construct: also called BG505_(SOSIP) trimer; source: Expi293F, transient co-transfection with a furin-encoding plasmid; copies: 3 + 3
# Experiment: cryo-EM structure; Fab–trimer complexes in TBS, incubated overnight at room temperature: 04_A06–PGDM1400–BG505 at 3.6:1.2:1 (Fab:Fab:trimer), purified on Superose-6 Increase; 01_D03–BG505 and 05_B08–BG505 at 3.6:1 (Fab:trimer) without further SEC
# Conditions: both partners purified
binder,measurement,value
B1,stoichiometry N,1 Fab per trimer
